Assay results published in patent US20260049134A1 (UNIVERSITY OF FLORIDA RESEARCH FOUNDATION, published 2026).
Each block holds one binder with its values, some of them ahead of it.

Legend:
[1] = target: T1, GARS, endogenous in H929 multiple myeloma cells (human, UniProt P41250 37-739, limits assumed); test: IP from H929 cell lysate, LC-MS/MS
T1 construct: Native protein pulled down from H929 lysates; also called Glycyl-tRNA synthetase; GlyRS
T1 sequence: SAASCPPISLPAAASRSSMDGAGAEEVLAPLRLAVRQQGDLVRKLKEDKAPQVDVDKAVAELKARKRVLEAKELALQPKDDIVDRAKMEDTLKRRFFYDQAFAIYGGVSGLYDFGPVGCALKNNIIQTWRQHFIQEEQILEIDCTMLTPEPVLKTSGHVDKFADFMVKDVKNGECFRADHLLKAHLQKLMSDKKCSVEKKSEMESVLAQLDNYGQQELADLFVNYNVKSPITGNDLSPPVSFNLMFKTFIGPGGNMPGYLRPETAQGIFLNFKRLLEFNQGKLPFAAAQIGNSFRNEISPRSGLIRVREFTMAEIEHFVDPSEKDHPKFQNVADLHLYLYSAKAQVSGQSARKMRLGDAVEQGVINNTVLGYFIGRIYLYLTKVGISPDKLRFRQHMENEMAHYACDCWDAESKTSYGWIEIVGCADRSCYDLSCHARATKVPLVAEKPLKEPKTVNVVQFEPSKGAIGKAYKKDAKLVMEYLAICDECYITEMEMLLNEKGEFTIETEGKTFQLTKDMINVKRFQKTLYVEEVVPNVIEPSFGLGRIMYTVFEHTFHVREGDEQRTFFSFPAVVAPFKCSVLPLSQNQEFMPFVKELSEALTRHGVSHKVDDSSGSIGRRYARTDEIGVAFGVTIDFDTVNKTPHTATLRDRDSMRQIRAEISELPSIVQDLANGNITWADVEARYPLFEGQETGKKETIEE
Method: Immunoprecipitation. […] After 30 min of rocking at 4° C., and lysates were centrifuged at 18,400×g for 20 min at 4° C. Subsequently, 1-mL aliquots of the supernatants were pre-cleared twice with Protein G agarose (Thermo Fisher Scientific) by adding 50 μL of 50% resin slurry and incubating 30 min with end-over-end tumbling at 4° C., followed by centrifugation at 16,000×g for 5 min and pooling of the pre-cleared cell lysate aliquots. Representative mAbs from each cluster were immobilized on Protein G agarose at a ratio of 25 μg IgG1 per 30 μL of 50% slurry, diluted to 500 μL with Dulbecco's PBS (DPBS) and incubated for 1 h at 4° C. with tumbling, followed by centrifugation at 5,000×g for 30 s and 2 washes with lysis buffer. After the last wash, the ˜15 μL of IgG1-coated resin was blocked with 10 μL of 10% BSA (MilliporeSigma). Next, 1 mL of the pooled pre-cleared cell lysate was added to the IgG1-coated resin and incubated for 3 h at 4° C. with tumbling. […] Finally, 16 μL of the eluate (˜20%) was analyzed on a reducing SDS-PAGE gel stained with SYPRO Ruby dye (Bio-Rad Laboratories), while the rest was stored at −80° C. prior to LC-MS/MS analysis. […]

[2] = target: T2, PTPRG, endogenous in H929 multiple myeloma cells (human, UniProt P23470 20-1445); test: flow cytometry, H929 + GARS siRNA; None 0.2
T2 construct: Native protein on H929 cells (flow cytometry, siRNA knockdown) and in H929 lysates (IP/MS); also called phosphatase receptor type γ

[3] = target: T2, PTPRG, endogenous in H929 multiple …; test: flow cytometry, H929 + CDH18 siRNA; None 0.19
[4] = target: T3, ICAM1, endogenous in H929 multiple myeloma cells (human, UniProt P05362 28-532); test: flow cytometry, H929 + CADM1 siRNA; None 449
T3 construct: Native protein on H929 cells (flow cytometry, siRNA knockdown) and in H929 lysates (IP/MS); also called CD54

[5] = target: T3, ICAM1, endogenous in H929 multiple …; test: flow cytometry, H929 + GARS siRNA; None 0.2
[6] = target: T3, ICAM1, endogenous in H929 multiple …; test: flow cytometry, H929 + CADM1 siRNA; None 0.89
[7] = target: T3, ICAM1, endogenous in H929 multiple …; test: flow cytometry, H929 + CDH18 siRNA; None 0.19
[8] = target: T4, CADM1, endogenous in H929 multiple myeloma cells (human, UniProt Q9BY67 45-442); test: flow cytometry, H929 + GARS siRNA; None 0.2
T4 construct: Native protein on H929 cells (flow cytometry, siRNA knockdown) and in H929 lysates (IP/MS); RPMI-8226 cells were used for sorting with HW-97; also called IGSF4A
T4 sequence: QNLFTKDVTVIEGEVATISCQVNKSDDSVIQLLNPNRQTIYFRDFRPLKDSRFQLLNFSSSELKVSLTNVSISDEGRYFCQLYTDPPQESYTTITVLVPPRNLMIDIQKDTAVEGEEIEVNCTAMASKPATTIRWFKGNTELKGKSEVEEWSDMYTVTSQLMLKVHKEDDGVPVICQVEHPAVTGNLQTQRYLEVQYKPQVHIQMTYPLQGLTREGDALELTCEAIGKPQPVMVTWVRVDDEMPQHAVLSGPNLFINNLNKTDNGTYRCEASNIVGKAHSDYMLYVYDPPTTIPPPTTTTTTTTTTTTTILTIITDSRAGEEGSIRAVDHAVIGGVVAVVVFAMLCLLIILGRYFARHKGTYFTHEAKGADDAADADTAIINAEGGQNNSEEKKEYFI

[9] = target: T4, CADM1, endogenous in H929 multiple …; test: flow cytometry, H929 + CDH18 siRNA; None 0.19

T3 sequence (P05362 28-532 limits assumed): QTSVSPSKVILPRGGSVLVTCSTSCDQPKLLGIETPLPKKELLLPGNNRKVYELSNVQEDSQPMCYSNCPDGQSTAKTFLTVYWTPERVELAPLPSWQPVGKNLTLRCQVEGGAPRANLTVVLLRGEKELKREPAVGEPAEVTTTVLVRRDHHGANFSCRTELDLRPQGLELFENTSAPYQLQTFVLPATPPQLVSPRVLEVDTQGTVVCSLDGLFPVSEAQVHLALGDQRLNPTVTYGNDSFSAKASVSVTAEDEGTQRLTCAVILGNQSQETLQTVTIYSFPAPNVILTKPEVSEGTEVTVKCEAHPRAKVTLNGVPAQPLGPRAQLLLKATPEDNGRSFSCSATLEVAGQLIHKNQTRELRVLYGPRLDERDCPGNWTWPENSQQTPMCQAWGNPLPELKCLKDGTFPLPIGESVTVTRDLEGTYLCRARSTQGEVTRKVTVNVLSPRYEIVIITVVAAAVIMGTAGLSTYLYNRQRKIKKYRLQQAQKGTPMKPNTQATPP
T2 sequence (P23470 20-1445 limits assumed): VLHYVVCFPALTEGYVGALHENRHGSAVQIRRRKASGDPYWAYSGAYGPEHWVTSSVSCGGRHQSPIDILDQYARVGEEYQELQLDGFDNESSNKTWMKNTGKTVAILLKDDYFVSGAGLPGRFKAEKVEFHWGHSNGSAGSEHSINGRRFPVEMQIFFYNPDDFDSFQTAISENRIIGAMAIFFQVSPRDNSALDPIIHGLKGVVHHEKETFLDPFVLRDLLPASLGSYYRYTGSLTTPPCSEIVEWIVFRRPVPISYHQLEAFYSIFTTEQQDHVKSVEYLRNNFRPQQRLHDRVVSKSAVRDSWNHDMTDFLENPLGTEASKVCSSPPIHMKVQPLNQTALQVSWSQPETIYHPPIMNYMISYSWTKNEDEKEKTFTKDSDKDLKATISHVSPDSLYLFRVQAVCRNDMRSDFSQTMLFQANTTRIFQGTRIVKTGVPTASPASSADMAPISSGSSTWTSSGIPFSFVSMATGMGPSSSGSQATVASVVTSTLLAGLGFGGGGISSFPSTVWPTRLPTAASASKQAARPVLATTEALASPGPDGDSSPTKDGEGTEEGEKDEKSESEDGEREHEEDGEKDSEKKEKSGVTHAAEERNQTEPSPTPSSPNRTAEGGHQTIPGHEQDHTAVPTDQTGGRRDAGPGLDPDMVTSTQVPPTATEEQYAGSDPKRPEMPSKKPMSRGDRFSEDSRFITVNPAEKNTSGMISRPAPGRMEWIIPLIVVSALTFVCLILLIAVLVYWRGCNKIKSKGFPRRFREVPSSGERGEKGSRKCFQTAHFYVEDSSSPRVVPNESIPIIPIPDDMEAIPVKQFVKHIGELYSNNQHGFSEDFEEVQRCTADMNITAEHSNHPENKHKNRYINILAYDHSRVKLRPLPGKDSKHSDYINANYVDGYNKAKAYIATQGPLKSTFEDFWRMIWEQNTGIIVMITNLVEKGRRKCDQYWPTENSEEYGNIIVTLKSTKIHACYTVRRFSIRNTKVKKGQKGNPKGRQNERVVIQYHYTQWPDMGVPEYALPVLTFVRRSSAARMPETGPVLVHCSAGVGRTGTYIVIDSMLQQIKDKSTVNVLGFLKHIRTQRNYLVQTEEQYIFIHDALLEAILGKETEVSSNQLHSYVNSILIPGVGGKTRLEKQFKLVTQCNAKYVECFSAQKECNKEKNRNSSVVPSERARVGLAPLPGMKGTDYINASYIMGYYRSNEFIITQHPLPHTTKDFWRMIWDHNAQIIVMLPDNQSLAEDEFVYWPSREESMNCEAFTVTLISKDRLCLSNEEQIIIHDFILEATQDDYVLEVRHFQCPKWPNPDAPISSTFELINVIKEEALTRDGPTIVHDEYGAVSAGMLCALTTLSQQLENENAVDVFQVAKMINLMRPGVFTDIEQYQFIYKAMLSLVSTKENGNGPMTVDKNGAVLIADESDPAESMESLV

B2: HW-42 chimeric rabbit-human IgG1 LA/LA/PG (antibody, V domains shown)
VH: QSVKESEGGLFKPADTLTLTCTVSGFSLSSNEISWVRQAPGEGLEYIGIIDTGGRAYYAVWARSRSTITRNTNLNTVTLKMTSLTAADTATYFCARGGVDTEWYAFSSWGPGTLVTVPS
VL: SFVLTQPASVQVNLGQTVSLTCTADTLSRRYASWYQQKPGQAPVLLIFRDTSRPSGVPDRFSGSSSGDTATLTISGAQAGDEADYYCATSDGSGSNYQYVFGGGTQLTVTG
notes: Fc-silenced (L234A/L235A/P329G) IgG1, lambda; Alexa Fluor 647-labeled in single-step flow cytometry; Cluster C-1
Cells stained (%) [2]: 98.8%
Cells stained (%) [3]: 99.5%

B4: HW-113 chimeric rabbit-human IgG1 LA/LA/PG (antibody, V domains shown)
VH: QKQLVESGGGLVQPGGSLTLTCTVSGFSLNKYYMGWFRQAPGKGLEWIGVISRSGDTYYSSWAKGRFTISKASTTVDLRITSPTTEDTATYFCARDASSPGFHGDRLDLWGQGTLVTVSS
VL: SFVLTQPASVQVNLGQTVSLTCTADTLSRSYASWYQQKPGQAPVLLIYRDTSRPSGVPDRFSGSSSGNTATLTISGAQAGDEADYYCATSDGIGSNYLWVFGGGTQLTVTG
notes: Fc-silenced (L234A/L235A/P329G) IgG1, lambda; Alexa Fluor 647-labeled in single-step flow cytometry
mAb binding (MFI) [4]: 32600
Cells stained (%) [5]: 99.8%
Cells stained (%) [6]: 99.7%
Cells stained (%) [7]: 98.8%

B5: HW-97 chimeric rabbit-human IgG1 LA/LA/PG (antibody, V domains shown)
VH: QKQLVESGGRLVTPGTPLTLTCTVTGIDLSSHGMSWVRQAPGKGLEWIGVIYPSGSTWYASWARGRFTISKTSTTVDLKMTSLTTEDTATHFCARGDVGGADNNIWGPGTLVTVSS
VL: SFVLTQPASVQVDLGQTVSLTCTAETLSRSYASWYQQKPGQAPVLLIYRDTSRPSGVPDRFSGSSSGNTATLTISGAQAGDEADYYCATSDGSGSSYQYVFGGGTQLTVTG
notes: Fc-silenced (L234A/L235A/P329G) IgG1, lambda; Alexa Fluor 647-labeled in single-step flow cytometry; Prototype of cluster C-97
Cells stained (%) [8]: 99.9%
Cells stained (%) [9]: 99.7%

Now from value to binder:

binding result [1]: no binding
B1: TH9-0022 (antibody, human IgG1, kappa, L234A L235A, V domains shown)
VH: QSLEESGGRLVTPGTPLTLTCTVSGFSLSSYAMNWVRQAPGKGLEWIGIINSYGSTYYASWAKGRFTISKTSTTVDLKITSPTTEDTATYFCARVTYDSYGYGYAPYGMDLWGPGTLVTVSS
VL: LVMTQTPSSTSNAVGGTVTIKCQASQSIGNVLAWYQQKPGQPPKLLIYAASTLASGVPSRVGGSRSGTEYTLTISGVQREDAATYYCLGSDSDSDIAFGGGTELEILR
notes: also called TH9-022; negative control IgG1

binding result [1]: no binding
B3: HW-1 chimeric rabbit-human IgG1 LA/LA/PG (antibody, V domains shown)
VH: QSLEESGGGLFKPTDTLTLTCTASGFSLGSSYAISWVRQAPGKELEWIGTIDSGRAYYARWAKSRSTITRNTNENTVTLKMTSLTAADTATYFCARDLIPTYSQDIWGPGTLVTISS
VL: SFVLTQPASVQVNLGQTVSLTCTADTLSRRYASWYQQKPGQAPVLLIYRDTSRPSGVPDRFSGSSSGNTATLTISGAQAGDEADYYCATSDGSGNSYQYVFGGGTQLTVTS
notes: Fc-silenced (L234A/L235A/P329G) IgG1, lambda; Alexa Fluor 647-labeled in single-step flow cytometry; Prototype of cluster C-1
